Laboratory results: the supplement of paper PMC7877785
± gives the uncertainty stated by the source.

Assay: self-splicing fitness, log relative to wild type (ln ratio); higher = more splicing; Tetrahymena group I intron in knt gene, E. coli kanamycin selection, DiMSum; sequences stand for … in CUCUCU…GGAGGGAAAAGUUAUCAGGCAUGCACCUGGUAGCUAGUCUUUAAACCAAUAGAUUGCAUCGGUUUAAAAGGCAAGACCGUCAAAUUGCGGGAAAGGGGUCAACAGCCGUUCAGUACCAAGUCUCAGGGGAAACUUUGAGAUGGCCUUGCAAAGGGUAUGGUAAUAAGCUGACGGACAUGGUCCUAACCACGCAGCCAAGUCCUAAGUCAACAGAUCUUCUGUUGAUAUGGAUGCAGUUCACAGACUAAAUGUCGGUCGGGGAAGAUGUAUUCUUCUCAUAAGAUAUAGUCGGACCUCUCCUUAAUGGGAGCUAGCGGAUGAAGUGAUGCAACACUGGAGCCGCUGGGAACUAAUUUGUAUGCGAAAGUAUAUUGAUUAGUUUUGGAGUACUCGUGGUCG
In short: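 Fitness was computed with DiMSum as the error-weighted combination of replicate fold changes, kanamycin versus none, each normalised to wild type. The library randomised all eight intron nucleotides of the P1ex region, with the intron placed in the knt kanamycin-resistance gene on pET-22b(+) in E. coli BL21(DE3). Six replicate transformations were grown overnight at 37°C or 30°C on LB agar with or without 25 μg/mL kanamycin, plus 100 μg/mL carbenicillin, 50 μM IPTG and 0.2% rhamnose. Pooled colonies were amplicon-sequenced on an Illumina HiSeq 2500.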

Sequence | self-splicing fitness (ln) (30 °C) | self-splicing fitness (ln) (37 °C)
GGUUAGCAAUAUUACGCGCA | 1.25 ± 0.28 | 0.766 ± 0.34
UUUCAGCAAUAUUACGCCUG | -1.95 ± 0.12 | -1.02 ± 0.11
GUUGAGCAAUAUUACGCUUA | -2.55 ± 0.21 | -0.787 ± 0.17
UCUGAGCAAUAUUACGCGUG | -2.36 ± 0.16 | -0.768 ± 0.11
AAAAAGCAAUAUUACGCCGA | -1.19 ± 0.088 | -1.01 ± 0.099
ACGAAGCAAUAUUACGUUGC | -3.45 ± 0.17 | -1.8 ± 0.16
GGUUAGCAAUAUUACGCCUG | -2.89 ± 0.38 | -2.7 ± 0.48
CUUGAGCAAUAUUACGUUAC | -3 ± 0.33 | -2.44 ± 0.32
CCCCAGCAAUAUUACGGAUU | -4.3 ± 0.16 | -2.37 ± 0.13
UUAAAGCAAUAUUACGCACA | 0.245 ± 0.098 | -0.401 ± 0.12
CGGUAGCAAUAUUACGAUCU | -0.105 ± 0.081 | 0.492 ± 0.12
AGACAGCAAUAUUACGUUGU | -3.02 ± 0.13 | -2.21 ± 0.12
GCUGAGCAAUAUUACGAGCA | -1.54 ± 0.14 | -1.34 ± 0.15
CCAUAGCAAUAUUACGAGAA | -0.566 ± 0.36 | –
CUGAAGCAAUAUUACGUACA | -2.36 ± 0.21 | -1.39 ± 0.25
CUUCAGCAAUAUUACGCGGA | -1.83 ± 0.21 | -2.74 ± 0.3
CUCGAGCAAUAUUACGCACA | -4.64 ± 0.3 | -1.94 ± 0.19
CUCCAGCAAUAUUACGCGAU | -3.55 ± 0.13 | -2.24 ± 0.14
CAGUAGCAAUAUUACGGGUG | -0.853 ± 0.06 | -0.398 ± 0.078

Sequence | self-splicing fitness (ln) (30 °C) | self-splicing fitness (ln) (37 °C)
GAUAAGCAAUAUUACGCAUA | -0.919 ± 0.13 | -0.783 ± 0.18
UGUUAGCAAUAUUACGCUGU | -2.07 ± 0.23 | -0.914 ± 0.2
UCAUAGCAAUAUUACGCAUG | -4.52 ± 0.27 | -2.77 ± 0.23
CCAAAGCAAUAUUACGAGUA | -3.15 ± 0.23 | -2.6 ± 0.23
AAUGAGCAAUAUUACGGCAG | -2.62 ± 0.24 | -1.87 ± 0.46
UUCUAGCAAUAUUACGAAUG | -2.45 ± 0.4 | –
AACGAGCAAUAUUACGACCG | -3.46 ± 0.34 | –
UCCCAGCAAUAUUACGUCGG | -2.16 ± 0.13 | -2.59 ± 0.23
CCGGAGCAAUAUUACGCCUU | -2.67 ± 0.36 | -3.35 ± 0.47
AGGAAGCAAUAUUACGUACG | -1.15 ± 0.11 | -0.064 ± 0.1
GCCUAGCAAUAUUACGUUCG | -2.74 ± 0.15 | -2.09 ± 0.19
UAAAAGCAAUAUUACGGCGU | -1.12 ± 0.084 | -0.0589 ± 0.1
UGCAAGCAAUAUUACGAGUU | -1.88 ± 0.084 | -0.67 ± 0.098
UCAUAGCAAUAUUACGUAUG | -3.28 ± 0.16 | -2.09 ± 0.11
GCCCAGCAAUAUUACGUCCG | -3.33 ± 0.26 | -2.83 ± 0.21
ACAUAGCAAUAUUACGUAAG | -1.94 ± 0.085 | -1.6 ± 0.12
UCCCAGCAAUAUUACGAGAU | -3.57 ± 0.23 | -2.66 ± 0.17
CUAGAGCAAUAUUACGAUGA | -1.86 ± 0.14 | -1.12 ± 0.22
GCACAGCAAUAUUACGCCGU | -1.51 ± 0.1 | 0.145 ± 0.14
